Measurements reported in the nanobody polyreactivity screen of Harvey et al. (2022).

Test: yeast display, Sf9 membrane polyspecificity reagent, FACS + sequencing; frameworks hold sequencing errors
How it was run: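 Using colony PCR, genes from sorted yeast display clones were amplified, then sequenced on MiSeq at 2 × 250 and filtered by CDR length. The clones had been stained with 10% biotinylated, detergent-solubilized Sf9 membrane reagent for 1 hour at 4 °C and sorted by FACS into low and high (top ~1%) gates on anti-HA and streptavidin fluorescence. Polyreactivity labels come from the gate of origin.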

Sequence	polyreactivity (PSR sort gate)
QVQLVESGGGLVQAGGSLRICCADSGLTFRFYSSGWYRQAPGKEMELVAAISRSGGSTYYADSVKGRFTISRDNAKNTVYLQMNSLKPEDSAVYYCAAGRRGGKHGGTRGGDYWGQGTQVTVSS	high polyreactivity
QVQHVESGGGLVQAGGSLRISCAASGSTFPRYGKGRYRQAPGKERELVAAISSGGGRTYYADSVKGRFTISRDNAKNTVYVQMNSLKPEDTAVYYCNKRPSHWRHYIMDYWGQGTQVTVSS	high polyreactivity
QVQRVESGGGLVQAGGSLRLSCAASGRTLRYKGLYRQAPGKERELVAAITTGVSTNYADSVKGRFTISRDNAKNTVYLQMNSLKPEDTAVYYCAARARGTVYQYYYWGQGTQVTVSS	high polyreactivity
QVQIVESGGGLVQAGGSLRLSCAASGRTFYSYAMGWYRQAPGKERELVAAIRWTGVRTYYADSVKGRFTISRDNAKNTVYLEINSLKPEDTAVYYCAVFRSSGKGYRGPRDYWGQGTQVTVSS	high polyreactivity
QVQLVESGGVLVQAGCSLRLSCASSGITFKYYAMGRYSQAPGKEREFVAYISARGGGTYYADSVKGRFTISRDNAKNSVYLQMNSLKPEDYAVYYFNAGLIYHQLYSNLYDYWGQGTQVTVSS	high polyreactivity
QVQLVESGGGLVQAGGSLRLISAASGLIFKWYGMVWYRQAPGKEREFVAAITSSGTSTYYADSVKGRFTISRDNAKNTVDLHMNSLKPEDTAVYYCNARTKHRYEYDYWGQGTQVTVSS	high polyreactivity
QVQLVESGGGLVQAGGSLRLSCAASGSIFSYYAMGWYRQAPGKERELVAAIRRGGSTNYADSVKGRFTNSRDNAKNTVYLQMNSLKPEDTAVYYCAASLGWRFYYWGQGSQVTVSS	high polyreactivity
QVQLVESGGGLVQAGGSLRLSCAASGSTFSRYAMGWYRQAPGKERELVAAISWSGGSTYYADSVKGRFTISRDTAKNTVYLQMNSLKPEDTAVYYCAAYTYSFRANHDYWGQGTQVTVSS	high polyreactivity
QVQLVESGGGLVQAGCSLRLSCSASGSIFRNNAMGWYRPAHGKERELVAAITSTGTGTYYADSLKGRFTISRDNAKNTVYLQMNSLKPEDTAVYYCSVDDDFEFVYWGQGTQVTVSS	low polyreactivity
QVQLVDSGGGLVQAGGSLRLSCAASGFIFSSYAMGWYRQAPGKERELVAAITRSGGRTYYADSVKGRFTISRDNAKNTVYLQMNSLKQEDTAVYYCAAPNGAGYRGDYWGQGTQVTVSS	high polyreactivity
QVQLVESGGGLVQAGGSLRVSCAASGRTFGVYTMGWYRLAPGKERELVAAITWGGGRTYYADSVKGRFTISRDNAKNTVYLHMNSLKPEDTAVYYRAARVRGQGSYHFGYWGQGTQVTVSS	high polyreactivity
QVQLVESGGGLVQAGGSLRLSCAASGFIFIRYAMGWYRQAPGKERELVAAISASGVRTYYADSVKGRFTISRDNAKNTVYLQMNSLKPEDTAVYYCAVCSAWVYGIGRYYWGQGTQVTVSS	high polyreactivity
QVQLVESGGGLVQAGGSLRLSCAASGFIFRSYVMGWYRQAPGKEMEFVAVITSSGGRTYYADSVKGRFTISRDNAKNTVYLQMNSLKPEDTAVYYCAATRRYPPRRVWYDYWGQGTQVTVSS	high polyreactivity
QVQLVESGGGLVQAGGSLRLSCAASGRTFYYYAMGWYRQAPGKERELVARISRGGSTNYADSVKGRFTISRDNAKNTVYLQMNSLKPEDTAVYYCAKTISYTGRFWGYDYWGQGTQVTVSS	high polyreactivity
QVQLVESGGGLVQAGGSLRLSCAASGLIFLDYAMGWYRQAPGKERELVAAISSSGGRTYYADSVKGRFTISRDNAKNTVYLQMNSLKPEDTAVYYCATGPNSYDYWGQGTQVTVSS	high polyreactivity
QVQLVESGGGLVQAGGSLRLSCAACGSIIYRNAMGWYRPAPGKERELVAAIRTSSGSTYYADSVKGRFTISRDNAKNTVYLQMNSLKPEDTAVYYCAAPRLYGYYSWGQGTQVTVSS	low polyreactivity
QVQLVESGGGLVQAGGSLRLSCAASGFIFEYYVMGWYRQAPGKERELVAAISGSGGSTNYADSVKGRFTISRDNAKNTVYLQMNSLKPEDTAVYYCAARYYYFSANIFRYYYWGQGTQVTVSS	high polyreactivity
QVQLVESGGGLVQAGGSLRLSCAASGRTFRHYAMGWYRQAPGKERELVAAISGSGGRTYYADSVKGRFTISRDNAKNTVYLQMNSLKPEDTAVYYCNAYTWTYGEYEYWGQGTQVTVSS	high polyreactivity
QVQLQESAGVLVQAGGSLRLRCSASGYISCHASMGWYRQAPGKEGELAASITKGSSTNYADSVKGRFTIRDNAINTVFLQMNSLKPEDTAVCYCAVTYPYWGDYTYWGQGTQVTVSS	low polyreactivity
QVQLVESCGGLVQAGGSLRLRCAASGSIFSGYVMVWYRPAPGKERELVAAISGSGGSTYYADSVKGRFTISRYNAKNTVYLQMNSLKPEDTAVYYCNVDRSPTHIVGYGYWGQGSQVTVSS	low polyreactivity
QVQLVESGGGLVQAGGSLRLSCAASGSTFTTYAMGWYRQAPGKERELVAVITDSRGTYYADSVKGRFTISRDNAKNTVYLQMHSLKPEDTALYYCNRVFPPTDYEFDSWGQGTQVTVSS	low polyreactivity
